{"source": "the supplement of paper PMC11246515", "assay": "total protein half-life in vivo (active degradation + dilution); higher = more stable protein", "key": {"[1]": {"conditions": "E. coli NCM3722 delta-clpP delta-lon delta-hslV, growth: N-lim chemostat, doubling time 6 h"}, "[2]": {"conditions": "wild type E. coli NCM3722, growth: C-lim chemostat, doubling time 3 h"}, "[3]": {"conditions": "wild type E. coli NCM3722, growth: C-lim chemostat, doubling time 6 h"}, "[4]": {"conditions": "wild type E. coli NCM3722, growth: C-lim chemostat, doubling time 12 h"}, "[5]": {"conditions": "wild type E. coli NCM3722, growth: P-lim chemostat, doubling time 12 h"}, "[6]": {"conditions": "E. coli NCM3722 delta-clpP, growth: N-lim chemostat, doubling time 6 h"}, "[7]": {"conditions": "E. coli NCM3722 delta-hslV, growth: N-lim chemostat, doubling time 6 h"}, "[8]": {"conditions": "E. coli NCM3722 delta-lon, growth: N-lim chemostat, doubling time 6 h"}, "[9]": {"conditions": "E. coli NCM3722 delta-smpB, growth: N-lim chemostat, doubling time 6 h"}, "[10]": {"conditions": "wild type E. coli NCM3722, growth: N-lim chemostat, doubling time 6 h"}, "[11]": {"conditions": "wild type E. coli NCM3722, growth: N-lim chemostat, doubling time 12 h"}, "[12]": {"conditions": "wild type E. coli NCM3722, growth: P-lim chemostat, doubling time 6 h"}}, "note": "± gives the standard deviation of the averaged measurements."}
{"sequence": "MRVDAIAKVTGRARYTDDYVMAGMCYAKYVRSPIAHGYAVSINDEQARSLPGVLAIFTWEDVPDIPFATAGHAWTLDENKRDTADRALLTRHVRHHGDAVAIVVARDELTAEKAAQLVSIEWQELPVITTPEAALAEDAAPIHNGGNLLKQSTMSTGNVQQTIDAADYQVQGHYQTPVIQHCHMESVTSLAWMEDDSRITIVSSTQIPHIVRRVVGQALDIPWSCVRVIKPFVGGGFGNKQDVLEEPMAAFLTSKLGGIPVKVSLSREECFLATRTRHAFTIDGQMGVNRDGTLKGYSLDVLSNTGAYASHGHSIASAGGNKVAYLYPRCAYAYSSKTCYTNLPSAGAMRGYGAPQVVFAVESMLDDAATALGIDPVEIRLRNAAREGDANPLTGKRIYSAGLPECLEKGRKIFEWEKRRAECQNQQGNLRRGVGVACFSYTSNTWPVGVEIAGARLLMNQDGTINVQSGATEIGQGADTVFSQMVAETVGVPVSDVRVISTQDTDVTPFDPGAFASRQSYVAAPALRSAALLLKEKIIAHAAVMLHQSAMNLTLIKGHIVLVERPEEPLMSLKDLAMDAFYHPERGGQLSAESSIKTTTNPPAFGCTFVDLTVDIALCKVTINRILNVHDSGHILNPLLAEGQVHGGMGMGIGWALFEEMIIDAKSGVVRNPNLLDYKMPTMPDLPQLESAFVEINEPQSAYGHKSLGEPPIIPVAAAIRNAVKMATGVAINTLPLTPKRLYEEFHLAGLI", "values": [{"measurement": "total protein half-life in vivo", "setting": "[1]", "result": 5, "unit": "h"}, {"measurement": "total protein half-life in vivo", "setting": "[2]", "result": "1.88 ± 0.088", "unit": "h"}, {"measurement": "total protein half-life in vivo", "setting": "[3]", "result": "2.81 ± 0.68", "unit": "h"}, {"measurement": "total protein half-life in vivo", "setting": "[4]", "result": "3.56 ± 1.4", "unit": "h"}]}
{"sequence": "MRVLIKNGTVVNADGQAKQDLLIESGIVRQLGNNISPQLPYEEIDATGCYVFPGGVDVHTHFNIDVGIARSCDDFFTGTRAAACGGTTTIIDHMGFGPNGCRLRHQLEVYRGYAAHKAVIDYSFHGVIQHINHAILDEIPMIVEEGLSSFKLYLTYQYKLNDDEVLQALRRLHESGALTTVHPENDAAIASKRAEFIAAGLTAPRYHALSRPLECEAEAIARMINLAQIAGNAPLYIVHLSNGLGLDYLRLARANHQPVWVETCPQYLLLDERSYDTEDGMKFILSPPLRNVREQDKLWCGISDGAIDVVATDHCTFSMAQRLQISKGDFSRCPNGLPGVENRMQLLFSSGVMTGRITPERFVELTSAMPARLFGLWPQKGLLAPGSDGDVVIIDPRQSQQIQHRHLHDNADYSPWEGFTCQGAIVRTLSRGETIFCDGTFTGKAGRGRFLRRKPFVPPVL", "values": [{"measurement": "total protein half-life in vivo", "setting": "[2]", "result": "> 4", "unit": "h"}, {"measurement": "total protein half-life in vivo", "setting": "[5]", "result": 12.1, "unit": "h"}]}
{"sequence": "MRVLIVKTSSMGDVLHTLPALTDAQQAIPGIKFDWVVEEGFAQIPSWHAAVERVIPVAIRRWRKAWFSAPIKAERKAFREALQAENYDAVIDAQGLVKSAALVTRLAHGVKHGMDWQTAREPLASLFYNRKHHIAKQQHAVERTRELFAKSLGYSKPQTQGDYAIAQHFLTNLPTDAGEYAVFLHATTRDDKHWPEEHWRELIGLLADSGIRIKLPWGAPHEEERAKRLAEGFAYVEVLPKMSLEGVARVLAGAKFVVSVDTGLSHLTAALDRPNITVYGPTDPGLIGGYGKNQMVCRAPRENLINLNSQAVLEKLSSL", "values": [{"measurement": "total protein half-life in vivo", "setting": "[1]", "result": "5.54 ± 0.21", "unit": "h"}, {"measurement": "total protein half-life in vivo", "setting": "[6]", "result": "5.02 ± 0.34", "unit": "h"}, {"measurement": "total protein half-life in vivo", "setting": "[7]", "result": 5.1, "unit": "h"}, {"measurement": "total protein half-life in vivo", "setting": "[8]", "result": "5.08 ± 0.063", "unit": "h"}, {"measurement": "total protein half-life in vivo", "setting": "[9]", "result": "5.74 ± 1.2", "unit": "h"}, {"measurement": "total protein half-life in vivo", "setting": "[2]", "result": "2.76 ± 0.13", "unit": "h"}, {"measurement": "total protein half-life in vivo", "setting": "[3]", "result": "5.73 ± 0.28", "unit": "h"}, {"measurement": "total protein half-life in vivo", "setting": "[4]", "result": "13.2 ± 2.2", "unit": "h"}, {"measurement": "total protein half-life in vivo", "setting": "[10]", "result": "5.72 ± 0.27", "unit": "h"}, {"measurement": "total protein half-life in vivo", "setting": "[11]", "result": "11.5 ± 2.6", "unit": "h"}, {"measurement": "total protein half-life in vivo", "setting": "[12]", "result": "5.23 ± 0.16", "unit": "h"}, {"measurement": "total protein half-life in vivo", "setting": "[5]", "result": "10.63 ± 0.039", "unit": "h"}]}
{"sequence": "MRVLKFGGTSVANAERFLRVADILESNARQGQVATVLSAPAKITNHLVAMIEKTISGQDALPNISDAERIFAELLTGLAAAQPGFPLAQLKTFVDQEFAQIKHVLHGISLLGQCPDSINAALICRGEKMSIAIMAGVLEARGHNVTVIDPVEKLLAVGHYLESTVDIAESTRRIAASRIPADHMVLMAGFTAGNEKGELVVLGRNGSDYSAAVLAACLRADCCEIWTDVDGVYTCDPRQVPDARLLKSMSYQEAMELSYFGAKVLHPRTITPIAQFQIPCLIKNTGNPQAPGTLIGASRDEDELPVKGISNLNNMAMFSVSGPGMKGMVGMAARVFAAMSRARISVVLITQSSSEYSISFCVPQSDCVRAERAMQEEFYLELKEGLLEPLAVTERLAIISVVGDGMRTLRGISAKFFAALARANINIVAIAQGSSERSISVVVNNDDATTGVRVTHQMLFNTDQVIEVFVIGVGGVGGALLEQLKRQQSWLKNKHIDLRVCGVANSKALLTNVHGLNLENWQEELAQAKEPFNLGRLIRLVKEYHLLNPVIVDCTSSQAVADQYADFLREGFHVVTPNKKANTSSMDYYHQLRYAAEKSRRKFLYDTNVGAGLPVIENLQNLLNAGDELMKFSGILSGSLSYIFGKLDEGMSFSEATTLAREMGYTEPDPRDDLSGMDVARKLLILARETGRELELADIEIEPVLPAEFNAEGDVAAFMANLSQLDDLFAARVAKARDEGKVLRYVGNIDEDGVCRVKIAEVDGNDPLFKVKNGENALAFYSHYYQPLPLVLRGYGAGNDVTAAGVFADLLRTLSWKLGV", "values": [{"measurement": "total protein half-life in vivo", "setting": "[1]", "result": "5.65 ± 0.16", "unit": "h"}, {"measurement": "total protein half-life in vivo", "setting": "[6]", "result": "4.31 ± 0.13", "unit": "h"}, {"measurement": "total protein half-life in vivo", "setting": "[7]", "result": "4.513 ± 0.01", "unit": "h"}, {"measurement": "total protein half-life in vivo", "setting": "[8]", "result": "4.89 ± 0.11", "unit": "h"}, {"measurement": "total protein half-life in vivo", "setting": "[9]", "result": "4.13 ± 0.11", "unit": "h"}, {"measurement": "total protein half-life in vivo", "setting": "[2]", "result": "3.08 ± 0.21", "unit": "h"}, {"measurement": "total protein half-life in vivo", "setting": "[3]", "result": "5.9 ± 0.22", "unit": "h"}, {"measurement": "total protein half-life in vivo", "setting": "[4]", "result": "13.5 ± 0.33", "unit": "h"}, {"measurement": "total protein half-life in vivo", "setting": "[10]", "result": "4.29 ± 0.33", "unit": "h"}, {"measurement": "total protein half-life in vivo", "setting": "[11]", "result": "7.56 ± 0.76", "unit": "h"}, {"measurement": "total protein half-life in vivo", "setting": "[12]", "result": "6.53 ± 0.39", "unit": "h"}, {"measurement": "total protein half-life in vivo", "setting": "[5]", "result": "12.2 ± 0.26", "unit": "h"}]}
{"sequence": "MRVLLFLLLSLFMLPAFSADNLLRWHDAQHFTVQASTPLKAKRAWKLCALYPSLKDSYWLSLNYGMQEAARRYGVDLKVLEAGGYSQLATQQAQIDQCKQWGAEAILLGSSTTSFPDLQKQVASLPVIELVNAIDAPQVKSRVGVPWFQMGYQPGRYLVQWAHGKPLNVLLMPGPDNAGGSKEMVEGFRAAIAGSPVRIVDIALGDNDIEIQRNLLQEMLERHPEIDVVAGTAIAAEAAMGEGRNLKTPLTVVSFYLSHQVYRGLKRGRVIMAASDQMVWQGELAVEQAIRQLQGQSVSDNVSPPILVLTPKNADREHIRRSLSPGGFRPVYFYQHTSAAKK", "values": [{"measurement": "total protein half-life in vivo", "setting": "[1]", "result": "6.15 ± 0.33", "unit": "h"}, {"measurement": "total protein half-life in vivo", "setting": "[6]", "result": "5.43 ± 0.75", "unit": "h"}, {"measurement": "total protein half-life in vivo", "setting": "[7]", "result": "3.15 ± 0.62", "unit": "h"}, {"measurement": "total protein half-life in vivo", "setting": "[8]", "result": "4.15 ± 1.5", "unit": "h"}, {"measurement": "total protein half-life in vivo", "setting": "[9]", "result": 3.08, "unit": "h"}, {"measurement": "total protein half-life in vivo", "setting": "[4]", "result": 4.04, "unit": "h"}, {"measurement": "total protein half-life in vivo", "setting": "[10]", "result": "3.87 ± 1.8", "unit": "h"}, {"measurement": "total protein half-life in vivo", "setting": "[11]", "result": "9.91 ± 3.2", "unit": "h"}, {"measurement": "total protein half-life in vivo", "setting": "[12]", "result": 4.02, "unit": "h"}, {"measurement": "total protein half-life in vivo", "setting": "[5]", "result": "6.77 ± 2.5", "unit": "h"}]}
{"sequence": "MRVNNGLTPQELEAYGISDVHDIVYNPSYDLLYQEELDPSLTGYERGVLTNLGAVAVDTGIFTGRSPKDKYIVRDDTTRDTFWWADKGKGKNDNKPLSPETWQHLKGLVTRQLSGKRLFVVDAFCGANPDTRLSVRFITEVAWQAHFVKNMFIRPSDEELAGFKPDFIVMNGAKCTNPQWKEQGLNSENFVAFNLTERMQLIGGTWYGGEMKKGMFSMMNYLLPLKGIASMHCSANVGEKGDVAVFFGLSGTGKTTLSTDPKRRLIGDDEHGWDDDGVFNFEGGCYAKTIKLSKEAEPEIYNAIRRDALLENVTVREDGTIDFDDGSKTENTRVSYPIYHIDNIVKPVSKAGHATKVIFLTADAFGVLPPVSRLTADQTQYHFLSGFTAKLAGTERGITEPTPTFSACFGAAFLSLHPTQYAEVLVKRMQAAGAQAYLVNTGWNGTGKRISIKDTRAIIDAILNGSLDNAETFTLPMFNLAIPTELPGVDTKILDPRNTYASPEQWQEKAETLAKLFIDNFDKYTDTPAGAALVAAGPKL", "values": [{"measurement": "total protein half-life in vivo", "setting": "[1]", "result": "4.17 ± 0.081", "unit": "h"}, {"measurement": "total protein half-life in vivo", "setting": "[6]", "result": "3.55 ± 0.13", "unit": "h"}, {"measurement": "total protein half-life in vivo", "setting": "[7]", "result": "3.29 ± 0.037", "unit": "h"}, {"measurement": "total protein half-life in vivo", "setting": "[8]", "result": "4.19 ± 0.05", "unit": "h"}, {"measurement": "total protein half-life in vivo", "setting": "[9]", "result": "3.45 ± 0.21", "unit": "h"}, {"measurement": "total protein half-life in vivo", "setting": "[2]", "result": "3.53 ± 0.18", "unit": "h"}, {"measurement": "total protein half-life in vivo", "setting": "[3]", "result": "6.17 ± 0.42", "unit": "h"}, {"measurement": "total protein half-life in vivo", "setting": "[4]", "result": "10.5 ± 0.7", "unit": "h"}, {"measurement": "total protein half-life in vivo", "setting": "[10]", "result": "3.69 ± 0.2", "unit": "h"}, {"measurement": "total protein half-life in vivo", "setting": "[11]", "result": "5.13 ± 0.55", "unit": "h"}, {"measurement": "total protein half-life in vivo", "setting": "[12]", "result": "5.5 ± 0.58", "unit": "h"}, {"measurement": "total protein half-life in vivo", "setting": "[5]", "result": "10.7 ± 0.72", "unit": "h"}]}
